Experiment [1] has as its target Cx. quinquefasciatus BBMV (brush border membrane vesicles of Culex quinquefasciatus larvae; toxin receptors on them not identified) (Culex quinquefasciatus). Description: saturation binding of 125I-toxin to BBMV, Hill fit. The arrangement: Bmax: unit not given here.
In experiment [2] the target is Ae. aegypti BBMV (brush border membrane vesicles of Aedes aegypti larvae; toxin receptors on them not identified) (Aedes aegypti). Description: saturation binding of 125I-toxin to BBMV, Hill fit.
The target in experiment [3] is Cx. quinquefasciatus BBMV (brush border membrane vesicles of Culex quinquefasciatus larvae; toxin receptors on them not identified) (Culex quinquefasciatus). The experiment can be described thus: saturation binding of 125I-toxin to BBMV, Hill fit.
For experiment [4], the target named is An. quadrimaculatus BBMV (brush border membrane vesicles of Anopheles quadrimaculatus larvae; toxin receptors on them not identified) (Anopheles quadrimaculatus). The experiment can be described thus: saturation binding of 125I-toxin to BBMV, Hill fit.
For experiment [5], the target named is Cx. quinquefasciatus BBMV (brush border membrane vesicles of Culex quinquefasciatus larvae; toxin receptors on them not identified) (Culex quinquefasciatus). The experiment can be described thus: saturation binding of 125I-toxin to BBMV, Hill fit (repeats Table 3). Also noted: Bmax: unit not given here.

B1: 4BL3PAT (4BRA with D454 replaced with P and AT inserted after position 454, loop 3 of domain II) (protein)
chain: AINSSSVSTALKVAGAILKFVNPPAGTVLTVLSAVLPILWPTNTPTPERVWNDFMTNTGNLIDQTVTAYVRTDANAKMTVVKDYLDQYTTKFNTWKREPNNQSYRTAVITQFNLTSAKLRETAVYFSNLVGYELLLLPIYAQVANFNLLLIRDGLINAQEWSLAASAGDQLYNTMVQYTKEYIAHSITWYNKGLDVLRNKSNGQWITFNDYKREMTIQVLDILALFASYDPRRYPADKIDNTKLSKTEFTREIYTALVESPSSKSIAALEAALTRDVHLFTWLKRVDFWTNTIYQDLRFLSANKIGFSYTNSSAMQESGIYGSSGFGSNLTHQIQLNSNVYKTSITDTSSPSNRVTKMDFYKIDGTLASYNSNITPTPEGLRTTFFGFSTNENTPNQPTVNDYTHILSYIKTDVIPATYNSNRVSFAWTHKIVDPNNQIYTDAITQVPAVKSNFLNATAKVIKGPGHTGGDLVALTSNGTLSGRMEIQCKTSIFNDPTRSYGLRIRYAANSPIVLNVSYVLQGVSRGTTISTESTFSRPNNIIPTDLKYEEFRYKDPFDAIVPMRLSSNQLITIAIQPLNMTSNNQVIIDRIEIIPITQSVLDET
modifications: 125I-iodinated (iodo-bead, sites not stated) where used as labelled toxin
For B1, in experiment [1], the Bmax turned out to be 9.3 and the K′D (composite dissociation constant) was found to be 0.9 nM.

B2: 4BRA (Cry4Ba with R203 mutated to A, trypsin-activated toxin) (protein)
chain: AINSSSVSTALKVAGAILKFVNPPAGTVLTVLSAVLPILWPTNTPTPERVWNDFMTNTGNLIDQTVTAYVRTDANAKMTVVKDYLDQYTTKFNTWKREPNNQSYRTAVITQFNLTSAKLRETAVYFSNLVGYELLLLPIYAQVANFNLLLIRDGLINAQEWSLAASAGDQLYNTMVQYTKEYIAHSITWYNKGLDVLRNKSNGQWITFNDYKREMTIQVLDILALFASYDPRRYPADKIDNTKLSKTEFTREIYTALVESPSSKSIAALEAALTRDVHLFTWLKRVDFWTNTIYQDLRFLSANKIGFSYTNSSAMQESGIYGSSGFGSNLTHQIQLNSNVYKTSITDTSSPSNRVTKMDFYKIDGTLASYNSNITPTPEGLRTTFFGFSTNENTPNQPTVNDYTHILSYIKTDVIDYNSNRVSFAWTHKIVDPNNQIYTDAITQVPAVKSNFLNATAKVIKGPGHTGGDLVALTSNGTLSGRMEIQCKTSIFNDPTRSYGLRIRYAANSPIVLNVSYVLQGVSRGTTISTESTFSRPNNIIPTDLKYEEFRYKDPFDAIVPMRLSSNQLITIAIQPLNMTSNNQVIIDRIEIIPITQSVLDET
modifications: 125I-iodinated (iodo-bead, sites not stated) where used as labelled toxin
Turning to B2, the Bmax in experiment [2] stood at 17.2 fmol/µg; in experiment [3] it was 13.1 fmol/µg; in experiment [4], 35.2 fmol/µg; in experiment [5], 13.1. Further, the K′D (composite dissociation constant) in experiment [2] came out at 0.5 nM; in experiment [3] it was 6.9 nM; in experiment [4] it was 3.1 nM; in experiment [5], 6.9 nM.

These data come from patent US20050124803A1.
